T1: TCR gamma/delta constant region (TRGDC) (human, UniProt P0CF51 1-173; B7Z8K6 1-153)
T1 chain (looked up) 1: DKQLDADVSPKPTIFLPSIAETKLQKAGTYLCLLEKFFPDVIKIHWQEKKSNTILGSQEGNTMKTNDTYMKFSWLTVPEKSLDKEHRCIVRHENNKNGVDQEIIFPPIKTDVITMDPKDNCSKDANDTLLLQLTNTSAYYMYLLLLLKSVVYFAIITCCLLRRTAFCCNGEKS
T1 chain (looked up) 2: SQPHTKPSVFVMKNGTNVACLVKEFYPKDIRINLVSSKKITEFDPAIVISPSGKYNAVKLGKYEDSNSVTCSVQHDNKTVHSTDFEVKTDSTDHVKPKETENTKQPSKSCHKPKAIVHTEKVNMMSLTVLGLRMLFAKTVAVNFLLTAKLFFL

T2: T cell receptor (TCR) Vγ9 (TRGV9) (human, UniProt Q99603 21-122)
T2 sequence (looked up): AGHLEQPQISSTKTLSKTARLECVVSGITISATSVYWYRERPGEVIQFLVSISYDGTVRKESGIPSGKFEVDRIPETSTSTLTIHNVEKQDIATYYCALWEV


Target: T1, TCR gamma/delta constant region (TRGDC)
Test: cell-based or functional assay
For CD25+ (Vg9+ cells), flow staining in this document: test concentration or dose not given here.
For CD71+ (Vg9+ cells), flow staining in this document: test concentration or dose not given here.
For Granzyme B, Luminex (supernatant) in this document: unit not given here.
For IL6, Luminex (supernatant) in this document: unit not given here.
For TNFα, Luminex (supernatant) in this document: unit not given here.

CD25+ (Vg9+ cells), flow staining [%]	CD71+ (Vg9+ cells), flow staining [%]	Granzyme B; Luninex (supernatant)	IFNγ; Luninex (supernatant)	IL6; Luninex (supernatant)	TNFα; Luninex (supernatant)	Vg9 T cell %, flow staining [%]	Binder
36.5	98.2	4390	2120	590	158	12.3	VG9B410 (antibody, human IgG1, kappa) heavy: not shown light: DIQMTQSPSSVSASVGDRVTITCRASQGINSWLAWYQQKPGNAPKLLIYAASSLQSGVPSRFSGIGSGTDFIFTISSLQPEDFASYYCQQANSFPWTFGQGTKVEIKRTVAAPSVFIFPPSDEQLKSGTASVVCLLNNFYPREAKVQWKVDNALQSGNSQESVTEQDSKDSTYSLSSTLTLSKADYEKHKVYACEVTHQGLSSPVTKSFNRGEC
29.7	97	2960	846	228	89	8.5	VG9B386 (antibody, human IgG1, kappa, V domains shown) VH: EVQLVESGGGLVKPGGSLRLSCAASGFTFSSYSMIWVRQAPGKGLEWVSSIGSSSTYIYYADSVRGRFTISRDNAKTSLYLQMNSLRAEDTAMYFCARDGETGGFDYWGQGILVTVSS VL: EIVMTQSPGTLSLSPGERATLSCRASQSISRSYLAWYQQKPGQPPRLLIYGPSNRATGIPDRFSASGSGTDFTLTNSRLEPEDFAVYYCQQYGSLPLTFGGGTKVEIKR
24.7	89.7	1470	746	5200	135	5.5	VG9B387 (antibody, human IgG1, lambda, V domains shown) VH: EVQLVESGAEVKKPGASVKVSCKASGFTFTGYYLQWVRQAPGQGLEWMGWINPNSGYTDYAQRFQDRVTMTRDTSINTAYMELSRLRSDDTAVYYCARLDDAFDVWGQGTMVTVSS VL: SYELTQDPAVSVALGQTVRITCQGDSLRNYYAIWYQQKPGQAPVLVIFGKNNRPSGIPDRFSGSSSGTTASLTITGTQAEDEADYYCNSRDSSGNHWVFGGGTKLTVLG
27.1	92.4	2630	1460	4900	138	6.1	VG9B369 (antibody, human IgG1, kappa, V domains shown) VH: EVQLLESGPTLVKPTQTLTLTCTFSGFSLSTIGVGVGWIRQPPGKALEWLSLIYWNDDKRYNPSLKSRLTITKDTSKNQVVLTMTNMDPVDTATYYCAHSHDWVHAFDIWGQGTMVTVSS VL: DIVMTQSPSSLSASVGDRVTITCQASQDISHYLNWYQQKPGKAPKFLIYDASNLDTGVPSRFSGSGSGTDFTFTISSLQPEDIATYYCQQYDNFPLTFGGGTKVEIKR

The next lines start with the binder.

Binder	CD25+ (Vg9+ cells), flow staining [%]	CD71+ (Vg9+ cells), flow staining [%]	Granzyme B; Luninex (supernatant)	IFNγ; Luninex (supernatant)	IL6; Luninex (supernatant)	TNFα; Luninex (supernatant)	Vg9 T cell %, flow staining [%]
VG9B125 (antibody, human IgG1, kappa, V domains shown) VH: EVQLVESGGTLVQPGGSLRLSCAVSGFTFSSYDMNWVRQAPGKGLEWVSYISSSSTAKYYADSVKGRFTISRDNAKNSLYLQMNSLWDEDTAVYYCAREDIVVVTPILQHWGQGTTVTVSS VL: EIVMTQSPATLSLSPGERAILSCRASQSVSKDLAWYQQKPGQAPRLLIYDASNRATGIPARISGSGSGTDFTLTISSLEPEDFAVYYCQQRINWPLFTFGPGTKVEIKR	24.8	70.8	3760	1490	587	959	12.4
VG9B144 (antibody, human IgG1, lambda, V domains shown) VH: QVQLVQSGAEVKKPGASVKVSCKASGYTFTGYYMHWMRQAPGQGLEWMGWINPNSGATNKEQKFQGRVTMTRDTSISTAYMELSRLRSDDTAVYYCAREDDAFDVWGQGTMVTVSS VL: SSELTQDPAVSVALGQTVRITCQGDNLRNYYATWFQQKPGQAPVLVFFGKNNRPSGIPDRFSGSSSGDTASLTITGAQAEDEADYYCNSRDSSGNHVVFGGGTKLTVLG	20.6	89.6	1760	352	123	215	3.8
VG9B136 (antibody, human IgG1, kappa, V domains shown) VH: QVQLQQSGPGLVKPSQTLSLTCAISGDSVSSNRAAWNWIRQSPSKGLEWLGRTYYRSKWYNEYAASVKSRMSINPDTSKNQFSLQLNSVTPEDTALYYCARDLWELREACDIWGQGTMVTVSS VL: DIVMTQSPSFLSTFVGDRVTITCRASQGISSYLAWYQQKPGKVPKLLIYVASTLQSGVPSRFSGSGSGTEFTLTISSLQPEDFATYYCQQLNSYPFTFGPGTKVDIKR	33.3	94.9	1540	560	279	192	5.7
VG9B112 (antibody, human IgG1, kappa, V domains shown) VH: QVQLQQSGPGLVKPSQTLSLTCAISGDSVSSNSAAWNWIRQSPSRGLEWLGGTYYRSKWFNNYAVSVKSRITINPDTSTNQFSLQLNSVTPADTAVYYCARGEWGLRDAFDIWGQGTMVTVSS VL: DIQMTQSPSFLSASVGDRVIITCRASQGIHSYLAWYQQKPGKVPKLLIYVASTLQSGVPSRFSGSGSGTEFTLTISSLQPEDFATYYCQQLNSYPWTFGQGTKLEIKR	23.4	91.8	1140	461	256	1260	7.9

Target: T2, T cell receptor (TCR) Vγ9 (TRGV9)
Test: cell-based or functional assay

CD25+ (Vg9+ cells), flow staining [%]	CD71+ (Vg9+ cells), flow staining [%]	Granzyme B, Luminex (supernatant)	IFNγ, Luminex (supernatant)	IL6, Luminex (supernatant)	TNFα, Luminex (supernatant)	Vg9 T cell %, flow staining [%]	Binder
46.4	98.8	3390	1180	225	87	13.9	VG9B416 (antibody, human IgG1, kappa) heavy: not shown light: EIVLTQSPGTLSLSPGDRATLSCRASQSVASSYLAWYQQKPGQSPRLLIYGASSRATGIPDRFSGSGSGTDFTLTISRLEPEDFAVYYCQQYGSSPPYTFGQGTKLEIKRTVAAPSVFIFPPSDEQLKSGTASVVCLLNNFYPREAKVQWKVDNALQSGNSQESVTEQDSKDSTYSLSSTLTLSKADYEKHKVYACEVTHQGLSSPVTKSFNRGEC

From patent publication US20220125947A1 (published 2022)
